# Article PMC5437232, “Structure of human promyeloperoxidase (proMPO) and the role of the propeptide in processing and maturation” (The Journal of Biological Chemistry, 2017)
# B1: dimeric mature leukocyte myeloperoxidase (complex)
# light: not shown
# heavy: TGVNCETSCVQQPPCFPLKIPPNDPRIKNQADCIPFFRSCPACPGSNITIRNQINALTSFVDASMVYGSEEPLARNLRNMSNQLGLLAVNQRFQDNGRALLPFDNLHDDPCLLTNRSARIPCFLAGDTRSSEMPELTSMHTLLLREHNRLATELKSLNPRWDGERLYQEARKIVGAMVQIITYRDYLPLVLGPTAMRKYLPTYRSYNDSVDPRIANVFTNAFRYGHTLIQPFMFRLDNRYQPMEPNPRVPLSRVFFASWRVVLEGGIDPILRGLMATPAKLNRQNQIAVDEIRERLFEQVMRIGLDLPALNMQRSRDHGLPGYNAWRRFCGLPQPETVGQLGTVLRNLKLARKLMEQYGTPNNIDIWMGGVSEPLKRKGRVGPLLACIIGTQFRKLRDGDRFWWENEGVFSMQQRQALAQISLPRIICDNTGITTVSKNNIFMSNSYPRDFVNCSTLPALNLASWREAS
# modifications: heme covalently bound | glycosylated; heme covalently bound; interchain disulfide Cys-319-Cys-319 between the two H-chains
# notes: Myeloperoxidase, human, 14.5-kDa light polypeptide (L-chain) of mature MPO; three N termini found by mass spectrometry: Gly-164, Val-165 and Thr-166; ends before the excised peptide that begins at Ala-273; numbers on the 745-aa primary translation product; Myeloperoxidase, human, 59-kDa heavy polypeptide (H-chain) of mature MPO; three N termini found by mass spectrometry: Thr-277, Gly-278 and …
# Target: the molecule itself
# Experiment: SAXS; proteins in solution, 50 mM PBS, pH 7.4; concentrated to 1 mg/liter; 20 °C; SIBYLS beam line 12.3.1; Guinier plots and pair-density distributions compared with the crystal structures
protein,measurement,value
B1,stoichiometry N,2
